From publication PMC4725768

Experiments:
[1] = target: A391E EC+TM FGFR3 construct (human)
[2] = target: EC+TM (A374I-G375I-S378I) FGFR3 mutant (human)
[3] = target: EC+TM (L377I-G380I-A391I) FGFR3 mutant (human)
[4] = target: FGFR1 EC+TM-(GGS)5-YFP / FGFR1 EC+TM-(GGS)5-mCherry (human)
[5] = target: FGFR3 EC+TM-(GGS)5-YFP / FGFR3 EC+TM-(GGS)5-mCherry (human)
[6] = target: full-length FGFR3 (human FGFR3 IIIc) fused to YFP or mCherry (human) (UniProt P22607)
UniProt P22607, sequence (P22607 23-806): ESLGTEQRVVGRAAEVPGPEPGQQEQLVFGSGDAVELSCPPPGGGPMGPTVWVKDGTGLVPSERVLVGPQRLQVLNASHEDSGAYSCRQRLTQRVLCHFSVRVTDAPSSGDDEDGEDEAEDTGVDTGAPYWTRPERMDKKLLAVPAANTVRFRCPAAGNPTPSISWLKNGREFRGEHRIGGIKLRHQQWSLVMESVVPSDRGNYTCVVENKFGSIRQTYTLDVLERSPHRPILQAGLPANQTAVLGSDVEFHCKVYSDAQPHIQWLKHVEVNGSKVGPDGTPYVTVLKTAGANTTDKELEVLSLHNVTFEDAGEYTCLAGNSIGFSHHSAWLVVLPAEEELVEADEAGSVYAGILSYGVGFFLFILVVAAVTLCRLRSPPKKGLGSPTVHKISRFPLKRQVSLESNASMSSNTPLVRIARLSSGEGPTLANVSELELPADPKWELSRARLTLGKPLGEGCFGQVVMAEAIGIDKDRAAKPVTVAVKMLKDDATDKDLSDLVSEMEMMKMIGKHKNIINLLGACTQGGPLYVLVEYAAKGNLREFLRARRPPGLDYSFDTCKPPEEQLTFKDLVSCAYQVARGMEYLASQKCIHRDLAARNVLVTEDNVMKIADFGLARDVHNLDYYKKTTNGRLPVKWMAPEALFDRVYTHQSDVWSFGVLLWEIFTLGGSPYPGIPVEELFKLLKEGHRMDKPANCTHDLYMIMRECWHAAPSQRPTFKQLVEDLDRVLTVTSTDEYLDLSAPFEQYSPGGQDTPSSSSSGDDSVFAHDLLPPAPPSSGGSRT

Substance | intrinsic FRET of the EC+TM FGFR3 A391E dimer (QI-FRET in vesicles) at saturating fgf2 [1] | intrinsic FRET of the EC+TM FGFR3 A374I-G375I-S378I dimer (QI-FRET in vesicles) at saturating fgf2 [2] | intrinsic FRET of the EC+TM FGFR3 L377I-G380I-A391I dimer (QI-FRET in vesicles) at saturating fgf2 [3] | intrinsic FRET of the EC+TM FGFR1 dimer (QI-FRET in vesicles) at saturating fgf2 (5 μg ml^−1) [4] | intrinsic FRET of the EC+TM FGFR3 dimer (QI-FRET in vesicles) at saturating fgf2 (5 μg ml^−1) [5] | fold increase of full-length FGFR3 phosphorylation (western blot, anti-phospho-Tyr) at saturating fgf2 over no ligand [6] [fold] | intrinsic FRET of the EC+TM FGFR3 A391E dimer (QI-FRET in vesicles) at saturating fgf1 [1] | intrinsic FRET of the EC+TM FGFR3 A374I-G375I-S378I dimer (QI-FRET in vesicles) at saturating fgf1 [2] | intrinsic FRET of the EC+TM FGFR3 L377I-G380I-A391I dimer (QI-FRET in vesicles) at saturating fgf1 [3] | intrinsic FRET of the EC+TM FGFR1 dimer (QI-FRET in vesicles) at saturating fgf1 (5 μg ml^−1) [4] | intrinsic FRET of the EC+TM FGFR3 dimer (QI-FRET in vesicles) at saturating fgf1 (5 μg ml^−1) [5] | fold increase of full-length FGFR3 phosphorylation (western blot, anti-phospho-Tyr) at saturating fgf1 over no ligand [6] [fold]
human fgf2 (from UniProt P09038 143-288) (ligand) | 0.78 | 0.74 | 0.53 | 0.73 | 0.72 | 2 to 4 | – | – | – | – | – | –
human fgf1 (from UniProt P05230 16-155) (ligand) | – | – | – | – | – | – | 0.75 | 0.63 | 0.52 | 0.55 | 0.55 | 1.5 to 3
